From the Human Domainome abundance scans (Beltran et al. 2025)
± gives the uncertainty stated by the source.

B1: Cyclin-F, residues 28 to 80; numbered along this chain, P41002 (parent)
chain: RNLTILSLPEDVLFHILKWLSVEDILAVRAVHSQLKDLVDNHASVWACASFQE

Variants of: B1
Assay: abundance fitness (aPCA) (normalised: wild type 0, dead -1); higher = more abundant; growth selection in yeast, the domain comes from the species named
Conditions: Homo sapiens

Abundance fitness of substitutions, site by site:
I16: C -0.341 ± 0.18, E -0.773 ± 0.23, K -1.11 ± 0.43, L -0.646 ± 0.11, Y -0.641 ± 0.24, P -0.673 ± 0.22, T -0.805 ± 0.22, N -1.04 ± 0.34, H -1.02 ± 0.31, S -0.664 ± 0.15, G -0.701 ± 0.095, A -0.901 ± 0.14, M -0.32 ± 0.14, R -0.501 ± 0.093, W -0.823 ± 0.17
L13: W -0.204 ± 0.21, Q -0.093 ± 0.19, E -0.81 ± 0.32, G -0.692 ± 0.14, R -0.633 ± 0.26, T -0.001 ± 0.17, F 0.091 ± 0.28, D -0.644 ± 0.44, K -0.431 ± 0.23, Y -0.306 ± 0.37, V -0.141 ± 0.14, C -0.933 ± 0.35, M -0.138 ± 0.14, S -0.67 ± 0.2
W19: K 0.218 ± 0.25, L 0.293 ± 0.084, P -0.458 ± 0.14, N 0.223 ± 0.11, R -0.154 ± 0.097, Y 0.397 ± 0.17, H 0.257 ± 0.18, T -0.269 ± 0.14, M 0.33 ± 0.13, V -0.226 ± 0.084, C 0.229 ± 0.11, E 0.227 ± 0.16, D -0.137 ± 0.12, S -0.057 ± 0.091, G -0.273 ± 0.097
K18: Y -0.505 ± 0.22, N -0.107 ± 0.14, M -0.251 ± 0.16, L -0.553 ± 0.092, C -0.597 ± 0.2, I -0.449 ± 0.16, R -0.14 ± 0.091, G -0.132 ± 0.1, V -0.452 ± 0.11, P -0.72 ± 0.17, A -0.314 ± 0.13, S -0.215 ± 0.097, H -0.122 ± 0.17, T -0.254 ± 0.13, F -0.573 ± 0.16, Q -0.081 ± 0.16, D -0.483 ± 0.19, E -0.148 ± 0.13
P9: T -0.69 ± 0.14, A -0.778 ± 0.11, Q -0.735 ± 0.14, V -0.59 ± 0.11, F -0.621 ± 0.15, I -0.847 ± 0.28, G -0.413 ± 0.081, K -0.818 ± 0.15, R -0.692 ± 0.088, Y -0.932 ± 0.18, N -0.882 ± 0.33, S -0.672 ± 0.11, C -0.676 ± 0.15, M -1.04 ± 0.21, H -0.949 ± 0.19, D -0.541 ± 0.16, E -0.646 ± 0.12
E10: H -0.166 ± 0.1, A -0.208 ± 0.12, F -0.449 ± 0.14, D -0.225 ± 0.12, P -0.357 ± 0.11, G -0.566 ± 0.096, W -0.737 ± 0.12, M -0.558 ± 0.15, R -0.054 ± 0.072, S -0.233 ± 0.082, T -0.35 ± 0.12, V -0.524 ± 0.11, N -0.589 ± 0.19, Y -0.505 ± 0.14, C -0.585 ± 0.15, K 0.24 ± 0.14, I -0.576 ± 0.16, L -0.646 ± 0.098
V12: S -0.85 ± 0.15, F -1.02 ± 0.22, T -0.493 ± 0.13, W -0.851 ± 0.16, D -0.816 ± 0.21, I 0.033 ± 0.093, K -1.07 ± 0.29, C -0.343 ± 0.28, N -1.02 ± 0.44, P -0.733 ± 0.13, A -0.816 ± 0.16, M -0.924 ± 0.17, Q -0.747 ± 0.15, R -0.909 ± 0.13, H -0.732 ± 0.28, Y -0.846 ± 0.21, L -0.281 ± 0.096, G -0.764 ± 0.15
L20: C -0.42 ± 0.16, T -0.923 ± 0.21, E -0.982 ± 0.23, G -0.605 ± 0.15, Q -0.893 ± 0.26, K -0.838 ± 0.41, P -0.893 ± 0.27, H -0.812 ± 0.48, V -0.484 ± 0.11, I -0.673 ± 0.23, D -0.675 ± 0.24, N -0.759 ± 0.23, F -1.01 ± 0.24, S -0.705 ± 0.15, W -0.747 ± 0.19, R -0.853 ± 0.14, Y -0.75 ± 0.29, A -0.667 ± 0.16
V22: C -0.286 ± 0.091, I 0.005 ± 0.12, R -0.177 ± 0.067, W -0.087 ± 0.079, D -0.405 ± 0.12, T -0.168 ± 0.11, Y 0.02 ± 0.098, H -0.122 ± 0.14, A -0.142 ± 0.085, E -0.285 ± 0.11, S -0.452 ± 0.083, K -0.132 ± 0.14, G -0.553 ± 0.071, Q -0.267 ± 0.12, F -0.141 ± 0.1
S21: T -0.126 ± 0.1, K -0.272 ± 0.17, F -0.731 ± 0.15, E -0.092 ± 0.14, C -0.311 ± 0.18, Y -0.566 ± 0.19, W -0.824 ± 0.16, Q -0.473 ± 0.17, D 0.135 ± 0.13, P -0.047 ± 0.12, M -0.815 ± 0.23, I -0.405 ± 0.23, L -0.855 ± 0.12, V -0.621 ± 0.12, N -0.148 ± 0.25, A -0.113 ± 0.1, G -0.226 ± 0.1, R -0.157 ± 0.09, H -0.334 ± 0.19
L17: Q -0.782 ± 0.21, E -1.06 ± 0.23, S -0.896 ± 0.14, R -0.774 ± 0.12, V -0.169 ± 0.093, D -0.868 ± 0.28, I 0.148 ± 0.26, F 0.056 ± 0.12, T -0.63 ± 0.18, C -0.223 ± 0.14, N -0.926 ± 0.4, G -0.547 ± 0.099, A -0.781 ± 0.13, H -0.678 ± 0.46
S7: F -0.547 ± 0.14, K -0.109 ± 0.13, P -0.767 ± 0.17, H -0.242 ± 0.15, Y -0.869 ± 0.22, V -0.647 ± 0.11, W -0.693 ± 0.12, M -0.195 ± 0.14, C -0.316 ± 0.12, T -0.381 ± 0.13, N -0.118 ± 0.13, Q -0.232 ± 0.13, E -0.27 ± 0.11, A -0.427 ± 0.1, L -0.647 ± 0.1, I -0.426 ± 0.2, G -0.31 ± 0.076, D 0.101 ± 0.13
F14: G -0.293 ± 0.082, R 0.056 ± 0.069, S -0.158 ± 0.08, V 0.198 ± 0.075, D -0.762 ± 0.14, L 0.179 ± 0.074, E -0.074 ± 0.13, H -0.324 ± 0.14, T 0.061 ± 0.094, A 0.132 ± 0.085, Y -0.153 ± 0.15, W 0.347 ± 0.083, C -0.162 ± 0.095, K 0.226 ± 0.093, Q -0.08 ± 0.1, P -0.954 ± 0.2, M 0.181 ± 0.083
L6: Y -0.423 ± 0.15
L8: N -0.755 ± 0.29, Q -0.925 ± 0.39, M -0.407 ± 0.4, K -0.744 ± 0.44, A -0.509 ± 0.31, R -0.833 ± 0.24, C -0.993 ± 0.38, T -0.651 ± 0.35, V -0.915 ± 0.26, G -0.939 ± 0.23, S -0.635 ± 0.33
A27: E -0.715 ± 0.19, C -0.091 ± 0.11, F -0.945 ± 0.24
E23: V -0.372 ± 0.13, H -0.358 ± 0.16, W -0.577 ± 0.23, G -0.48 ± 0.12, D 0.057 ± 0.24, P -0.236 ± 0.18, N -0.319 ± 0.21, S -0.186 ± 0.11, R -0.001 ± 0.12, A -0.053 ± 0.14, K -0.105 ± 0.14, M -0.802 ± 0.24, T -0.477 ± 0.18, Y -0.62 ± 0.2, L -0.856 ± 0.15, C -0.627 ± 0.23
D11: P -0.132 ± 0.16, C -0.18 ± 0.12, G -0.104 ± 0.082, S 0.093 ± 0.087, V -0.269 ± 0.1, E -0.153 ± 0.14, M -0.488 ± 0.16, H -0.384 ± 0.15, R -0.099 ± 0.08, A 0.028 ± 0.1, Y -0.556 ± 0.22, W -0.731 ± 0.14, N 0.046 ± 0.091, I -0.43 ± 0.25, F -0.823 ± 0.22, K 0.269 ± 0.14, Q -0.049 ± 0.13
D24: E -0.388 ± 0.14, Y -0.544 ± 0.15, L -0.718 ± 0.11, P -0.661 ± 0.17, F -1.06 ± 0.34, K -0.832 ± 0.2, G -0.624 ± 0.1, A -0.631 ± 0.13, S -0.882 ± 0.12, W -0.717 ± 0.14, R -0.797 ± 0.12, T -0.68 ± 0.14, H -0.708 ± 0.25, V -0.784 ± 0.15, N -1.11 ± 0.21, I -0.684 ± 0.24, C -0.716 ± 0.13, M -0.595 ± 0.17, Q -0.739 ± 0.31
H15: K 0.216 ± 0.15, V -0.55 ± 0.13, F -0.499 ± 0.15, L -0.204 ± 0.1, W -0.561 ± 0.18, C -0.091 ± 0.17, Q -0.356 ± 0.17, M -0.116 ± 0.14, N 0.226 ± 0.14, I -0.21 ± 0.19, E -0.222 ± 0.15, Y -0.388 ± 0.075, D -0.408 ± 0.18, A -0.279 ± 0.14, R 0.222 ± 0.089, P -0.731 ± 0.17, T -0.455 ± 0.13, S -0.235 ± 0.12
L26: Y -0.386 ± 0.16, E -0.5 ± 0.13, S -0.5 ± 0.12, R -0.169 ± 0.08, I -0.023 ± 0.29, A -0.283 ± 0.1, Q -0.147 ± 0.11, P -0.694 ± 0.17, T -0.396 ± 0.14, C -0.256 ± 0.13, F -0.424 ± 0.13, K -0.043 ± 0.17, D -0.961 ± 0.29, V -0.452 ± 0.1, G -0.451 ± 0.094, M -0.183 ± 0.14
I25: Y -0.971 ± 0.23, D -0.83 ± 0.17, P -0.806 ± 0.15, V -0.292 ± 0.097, C -0.527 ± 0.15, K -0.568 ± 0.15, E -0.809 ± 0.17, T -0.703 ± 0.17, N -1.14 ± 0.41, W -0.41 ± 0.1, S -0.783 ± 0.13, A -0.602 ± 0.1, L -0.33 ± 0.088, G -1.08 ± 0.14, H -0.82 ± 0.25, R -0.534 ± 0.087, M -0.346 ± 0.13
